# According to US20090175881A1 (SCHERING, published 2009):
# T1: rhIL-17A (human, UniProt Q16552 24-155)
# T1 sequence: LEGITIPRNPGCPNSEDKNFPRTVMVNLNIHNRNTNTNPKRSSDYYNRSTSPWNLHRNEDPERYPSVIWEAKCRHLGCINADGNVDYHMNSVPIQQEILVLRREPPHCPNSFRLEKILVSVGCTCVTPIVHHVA
# T2: cynomolgus monkey IL-17A (cynomolgus monkey, UniProt A0A2K5TTB0 24-155)
# T2 sequence: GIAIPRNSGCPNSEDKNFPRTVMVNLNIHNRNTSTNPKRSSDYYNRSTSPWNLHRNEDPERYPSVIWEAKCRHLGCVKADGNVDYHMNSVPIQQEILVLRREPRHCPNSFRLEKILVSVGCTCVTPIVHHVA
# T3: FLAG-tagged mouse IL-17A (mouse, UniProt Q62386 26-158, limits assumed)
# T3 construct: also called mIL-17A; intact mIL-17A
# T3 sequence: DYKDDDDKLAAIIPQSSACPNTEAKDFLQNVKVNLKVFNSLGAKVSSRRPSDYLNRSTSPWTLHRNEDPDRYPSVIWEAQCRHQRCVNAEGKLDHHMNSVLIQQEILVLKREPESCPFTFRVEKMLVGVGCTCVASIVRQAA
# T4: FLAG-huIL-17A (human, UniProt Q16552 24-155)
# T4 construct: also called FLAG-huL-17A; FLAG-IL-17A
# T4 sequence: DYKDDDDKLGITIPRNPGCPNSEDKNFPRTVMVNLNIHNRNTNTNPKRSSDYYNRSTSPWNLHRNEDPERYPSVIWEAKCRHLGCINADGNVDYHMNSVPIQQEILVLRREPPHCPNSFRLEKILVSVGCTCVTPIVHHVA
# T5: mouse IL-17A (mouse, UniProt Q62386 26-158, limits assumed)
# T5 construct: also called mu IL-17A; mu IL-17
# T5 sequence (looked up): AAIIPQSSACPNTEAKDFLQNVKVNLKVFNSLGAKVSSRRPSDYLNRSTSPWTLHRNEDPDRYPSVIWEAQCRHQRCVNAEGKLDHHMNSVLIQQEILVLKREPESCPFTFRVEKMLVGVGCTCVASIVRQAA
# T6: FLAG-tagged human IL-17F (human, UniProt Q96PD4 31-163, limits assumed)
# T6 construct: also called intact IL-17F
# T6 sequence: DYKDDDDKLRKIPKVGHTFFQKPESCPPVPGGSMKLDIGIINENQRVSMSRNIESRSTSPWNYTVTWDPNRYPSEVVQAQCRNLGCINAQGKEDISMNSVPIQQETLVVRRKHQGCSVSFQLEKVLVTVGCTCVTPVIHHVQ
# B1: rat 16C10 (antibody, rat IgG1, V domains shown)
# VH: QVELRESGPGLVQPSQTLSLTCTVSGFSLPSHSVSWIRQPPGKGLEWMGIIWNNGGTDYNSAFKSRLTISRDTSKSQVFLKMNSLQTEDTAMYFCARNMYITDYYYENYFMDAWGQGASVTVSS
# VL: DIVMTQSPSSLAVSIGETVTLNCKSSQSLLFSENQKNYLAWYQHKSGQSPKLLVYWTSTRQSGVPDRFMGSGSGTDFTLTISSVQAEDLAIYYCQQSYYTPYTFGAGTKLELKR
# notes: also called 16C10C; antibody 16C10
# Experiments:
# rhIL-17A [1] = molecular target: T1, rhIL-17A; assay: cell-based or functional assay
# cynomolgus monkey IL-17A [2] = molecular target: T2, cynomolgus monkey IL-17A; assay: cell-based or functional assay
# rhIL-17A [3] = molecular target: T1, rhIL-17A; assay: cell-based or functional assay; remark: listed apart in the source
# FLAG-tagged mouse IL-17A = molecular target: T3, FLAG-tagged mouse IL-17A; assay: observation on which Example 19 is based
# cynomolgus monkey IL-17A [4] = molecular target: T2, cynomolgus monkey IL-17A; assay: cell-based or functional assay; remark: listed apart in the source
# rhIL-17A [5] = molecular target: T1, rhIL-17A; assay: cell-based or functional assay; remark: listed apart in the source
# cynomolgus monkey IL-17A [6] = molecular target: T2, cynomolgus monkey IL-17A; assay: ECL (Origen); area under the curve
# Excerpt: (§1) Origen electrochemiluminescence technology, developed by IGEN, Inc. (Gaithersburg, Md., USA), and was employed to measure the binding of rat anti-human IL-17A antibodies (and one chimeric antibody) to FLAG-huL-17A. […] Electrochemiluminescence technology uses a stable ruthenium metal chelate (Ori-TAG) which, in the presence of tripropylamine (TPA), generates electrochemiluminescence upon voltage application. Paramagnetic beads, microns in diameter, act as the solid phase and facilitate rapid assay kinetics. The bead/complex is channeled through a flow cell and captured at an electrode by magnetic application. Voltage is applied and resulting electrochemiluminescence is measured.
# (§2) ECL assays were performed as follows. Three-fold serial dilutions of anti-human IL-17A mAbs in 50 μl of the assay buffer were made in a 96-well microtiter plate to give 1-3 μg/ml final concentration in the first well. […] Finally 50 μl of Origen Streptavidin-Dynabeads at 0.1 mg/ml was added to each well. […] GraphPad Prism software (GraphPad Software, San Diego, Calif., USA) was used to plot the data and calculate area under the curve, which is a rough measure of binding.
# rhIL-17A [7] = molecular target: T1, rhIL-17A; assay: indirect ELISA, rhIL-17A coated on plate
# Description: Binding of anti-human-IL-17A monoclonal antibodies to rhIL-17A is assessed using an indirect enzyme-linked immunosorbent assay (ELISA). Briefly, a fixed concentration of rhIL-17A is bound directly to the wells of a microtiter plate. The monoclonal anti-IL-17A to be assayed is then is added to the rhIL-17A coated plate, where the antibody is captured and quantitated.
# A 96-well U-bottom MaxiSorp plate is coated with 50 μl/well of rhIL-17A (0.5 μg/ml) in carbonate coating buffer (the “assay plate”). Carbonate coating buffer is 2.9 g/L NaHFCO₃, 1.6 g/L Na₂CO₃, pH 9.4. Plates are incubated covered at 4° C. overnight. Monoclonal antibodies to be screened are serially diluted in duplicate across the rows of a V-bottom plate such that the final volume is 60 μl/well (the “serial dilution plate”). The assay plate is washed three times with PBS-Tween in a plate washer (SkanWasher, Molecular Devices, Sunnyvale, Calif., USA) and blotted dry. PBS-Tween is obtained by adding 0.5 ml/L Tween 20 to 1×PBS. Fifty μl from each well of the serial dilution plate is transferred to the assay plate and incubated at 25° C. for one hour. Secondary antibodies are diluted 1/2000 in diluent (PBS-BSA-Tween, which is PBS-Tween with 1 g/L BSA). The secondary antibody for rat monoclonal antibodies is goat anti-rat IgG (H+L)—HRP (Jackson ImmunoResearch Laboratories, Inc., West Grove, Pa., USA). The secondary antibody for chimeric and humanized monoclonal antibodies is F(ab′)₂ goat anti-human IgG Fcγ—HRP (Jackson ImmunoResearch Laboratories, Inc.). The assay plate is washed as before. Diluted secondary antibodies (100 μl/well) are added to the appropriate wells in the assay plate, and the plate is incubated at 25° C. for 45 minutes. The assay plate is washed as before.
# cynomolgus monkey IL-17A [8] = molecular target: T2, cynomolgus monkey IL-17A; assay: KinExA, solution equilibrium
# Description: (§3) The equilibrium dissociation constants (Kd) for anti human IL-17A antibodies were determined using the KinExA 3000 instrument (Sapidyne Instruments Inc., Boise, Id., USA). KinExA uses the principle of the Kinetic Exclusion Assay method based on measuring the concentration of uncomplexed antibody in a mixture of antibody, antigen and antibody-antigen complex. […] The concentration of free antibody is measured by exposing the mixture to a solid-phase immobilized antigen for a very brief period of time. l practice, this is accomplished by flowing the solution phase antigen-antibody mixture past antigen-coated particles trapped in a flow cell. Data generated by the instrument are analyzed using custom software.
# (§4) IL-17A was derived from either human (“hu”), cynomolgus monkey (“cyno”), or mouse (“mu”). IL-17A from the same species was used in both the immobilized and solution phases for each KinExA determination. Poly(methyl-methacrylate) (PMMA) particles (98 micron) were coated with human, cyno or mouse IL-17A according to Sapidyne “Protocol for coating PMMA particles with biotinylated ligands having short or nonexistent linker arms.” All experimental procedures were done according to the KinExA 3000 manual. All runs were done in duplicate.
# (§5) Two-fold serial dilutions of the antigen were prepared and mixed with the antibody at constant concentration. The mixture was incubated for 2 hours at 25° C. to equilibrate.
# FLAG-huIL-17A [9] = molecular target: T4, FLAG-huIL-17A; assay: KinExA, solution equilibrium
# Description: as §3, §4, §5
# rhIL-17A [10] = molecular target: T1, rhIL-17A; assay: KinExA, solution equilibrium
# Description: as §3, §4, §5
# cynomolgus monkey IL-17A [11] = molecular target: T2, cynomolgus monkey IL-17A; assay: cell-based or functional assay; remark: listed apart in the source
# rhIL-17A [12] = molecular target: T1, rhIL-17A; assay: cell-based or functional assay; remark: listed apart in the source
# mouse IL-17A = molecular target: T5, mouse IL-17A; assay: ECL (Origen)
# Description: as §2
# FLAG-huIL-17A [13] = molecular target: T4, FLAG-huIL-17A; assay: ECL (Origen), antibody titrated against biotinylated antigen; area under the curve
# Excerpt: as §1, §2
# cynomolgus monkey IL-17A [14] = molecular target: T2, cynomolgus monkey IL-17A; assay: cell-based or functional assay; remark: listed apart in the source
# rhIL-17A [15] = molecular target: T1, rhIL-17A; assay: cell-based or functional assay; remark: listed apart in the source
# FLAG-tagged human IL-17F = molecular target: T6, FLAG-tagged human IL-17F; assay: AlphaScreen
# Description: Each of these three proteins was linked to an N-terminal FLAG® peptide tag (see residues 1 to 9 of SEQ ID NO.: 42). […] Donor and acceptor beads were mixed, illuminated at 680 nm, and emission was measured at 520-620 nm.
binder,measurement,setting,value
B1,"IC50, foreskin fibroblast (HS68) assay, rhIL-17A-induced IL-6",rhIL-17A [1],0.067 nM
same,"IC50, Ba/F3 hIL-17Rc-mGCSFR proliferation assay, IL-17A at 100 pM",cynomolgus monkey IL-17A [2],27 pM
same,"IC50, Ba/F3 hIL-17Rc-mGCSFR proliferation assay, IL-17A at 100 pM",rhIL-17A [3],20 pM
same,"IC50, Ba/F3 hIL-17Rc-mGCSFR proliferation assay, IL-17A at 276 pM",rhIL-17A [3],162 pM
same,binding result,FLAG-tagged mouse IL-17A,no binding
same,"IC50, synoviocyte IL-6 production, NHP IL-17A (30 ng/ml)",cynomolgus monkey IL-17A [4],0.06 µg/mL
same,"IC50, synoviocyte IL-6 production, rhIL-17A (30 ng/ml)",rhIL-17A [5],0.063 µg/mL
same,Area Under Peak,cynomolgus monkey IL-17A [6],152000
same,EC50,rhIL-17A [7],0.274 nM
same,Kd,cynomolgus monkey IL-17A [8],0.0017 nM
same,Kd,FLAG-huIL-17A [9],0.0036 nM
same,Kd,rhIL-17A [10],0.006 nM
same,"IC50, inhibition of IL-6 production in NHDF cells, cyno IL-17A",cynomolgus monkey IL-17A [11],0.2 nM
same,"IC50, inhibition of IL-6 production in NHDF cells, rhIL-17A",rhIL-17A [12],0.5 nM
same,binding result,mouse IL-17A,no binding (tested: 1-3 µg/ml antibody in the first well)
same,Area Under Peak,FLAG-huIL-17A [13],286000
same,"IC50, synoviocyte IL-8 production, NHP IL-17A (30 ng/ml)",cynomolgus monkey IL-17A [14],0.033 µg/mL
same,"IC50, synoviocyte IL-8 production, rhIL-17A (30 ng/ml)",rhIL-17A [15],0.038 µg/mL
same,binding result,FLAG-tagged human IL-17F,no binding
